In PMC8086558, “Membrane Interactions of the Peroxisomal Proteins PEX5 and PEX14” (Frontiers in Cell and Developmental Biology, 2021):

B1: PEX14 NTD (residues 1–104) (domain or fragment, human, UniProt O75381 1-104, looked up)
chain: MASSEQAEQPSQPSSTPGSENVLPREPLIATAVKFLQNSRVRQSPLATRRAFLKKKGLTDEEIDMAFQQSGTAADEPSSLGPATQVVPVQPPHLISQPYSPAGS
notes: human PEX14, N-terminal region up to the transmembrane span, residues 1-104, codon-optimised synthetic gene; holds the globular helical domain (residues 16-80); also called PEX14 (1–104); Pex14 (1–104); source: E. coli BL21 (DE3), purified (Ni-NTA, TEV cleavage, reverse Ni2+ column, SEC Superdex S75); not shown: His6, N-terminal, cleaved
B2: PEX5 NTD (residues 1–315) (domain or fragment)
chain: not shown
notes: human PEX5, N-terminal intrinsically disordered domain, residues 1-315, codon-optimised synthetic gene; harbours eight WF-like motifs (W0-W7); No primer pair is printed for the 1-315 construct; also called PEX5 (1–315); Pex5 (1–315); source: E. coli BL21 (DE3), purified (Ni-NTA under urea lysis, SEC Superdex S75), lyophilized; not shown: His6, N-terminal, kept

Legend:
Details in all cases: both partners purified
[1] = biological target: B2; test: ITC; 50 uM PEX5 (1-315) injected into the cell with 30 uM PEX14 (1-104); 25 °C; 20 mM NaP pH 6.5, 100 mM NaCl, no bicelles; triplicates; one-site model, number of sites set to 1/8
[2] = biological target: B2; test: ITC; 50 uM PEX5 (1-315) injected into the cell with 30 uM PEX14 (1-104); 25 °C; 20 mM NaP pH 6.5, 100 mM NaCl with 44 uM DMPC/D7PC bicelles; triplicates; one-site model, number of sites set to 1/8
[3] = biological target: B1; test: ITC; 50 uM PEX5 (1-315) injected into the cell with 30 uM PEX14 (1-104); 25 °C; 20 mM NaP pH 6.5, 100 mM NaCl, no bicelles; triplicates; one-site model, number of sites set to 1/8
[4] = biological target: B1; test: ITC; 50 uM PEX5 (1-315) injected into the cell with 30 uM PEX14 (1-104); 25 °C; 20 mM NaP pH 6.5, 100 mM NaCl with 44 uM DMPC/D7PC bicelles; triplicates; one-site model, number of sites set to 1/8

| Kd [1] | Kd [2] | dH [3] | stoichiometry N [3] | dH [4] | stoichiometry N [4] | Binder |
| --- | --- | --- | --- | --- | --- | --- |
| 0.147 ± 0.016 µM | 0.26 ± 0.026 µM |  |  |  |  | B1 |
|  |  | -615 ± 29.3 kJ/mol | 0.125 | -385 ± 12.6 kJ/mol | 0.125 | B2 |
